Experimental data: the DeepSol protein solubility set

Assay: soluble on expression in E. coli; label from the status in PepcDB or PDB records

Sequence	soluble on expression in E. coli
MGSDKIHHHHHHMSQAKATFSTEHDLNTSEQQAFWQSVVQDTLITADGITLAYMMVKHPQAHTAIVLSSGRVESYLKYQELVFDLYQQGYSVYAIDHRGQGLSDRMTINPHMGHVRRFNDYIDDFALFMQKKVLPQNDKQLMLLGHSMGGAIGTLYLKQHPDIFTAAAFSAPMYGIKLPMPKAFVRWLASKLDTTLNGGEPNYVLGGQNYKPVPFKGNELTHCQSRYQAYRDLYDAAPKLQLGSPTNRWLTESLDAADTCVLATAQIRTPILILQASEDKIVDNAAQNLAVSTHCQLKVIAGAAHEIFMEKDAYRNQALNYALDFFKRFAIKDEDKQAG	not soluble
MSEVPHFVLYEHAAGYALMKIKEFDDAGLILQEVDAAHADGYKFSQIVELASFDPFKNTEAALENCNSISEGLAHPDLTNFLQKSLPKKKKHVVLGINDSKLAGSLTEAFPDLKLVFGGVITEILRGTRVHFERLAKNLPHHSLSKAQLSLGHSYSRSKVKFDVHRVDNMVIQSIALLDQLDKDINLFGMRIREWYSYHYPELFRLAPDQYKYSRLAVAILDRNKMAENENLENEILEILDNDSEKTAQIIEAARTSMGMDISDLDLENIKRFAARVSSLMEYRQQLHEYIKDRMDHCAPSLSALIGEQVGARLISHAGSLTNLAKYPASTVQILGAEKALFRALKTRSNTPKYGLLFHSSFIGKAGTKNKGRVSRYLANKCSIAARVDCFSETPVSTYGEFLRQQVEDRLEYFTSGTVPKKNIDVMKEAEEAAVEVKEKVIKKKKKAAKKAKRLAEESVTATAEAEVDEDAPKPKKKKKSKAGDE	not soluble
GEVRNIVDKTASFVARNGPEFEARIRQNEINNPKFNFLNPNDPYHAYYRHKVSEFKEGKAQEPS	soluble
MSLGLINPDFQTLPELFTSVFSHFKGQPDKAPIARKINGAYSPISYDSLAEDCRHFAAYLKERGIEPGDRVAILSENRPGWYLADIAILSLGATDVPLYPSLPPNQIEYILNNCSAKGIIVSNMLQLGKILSIWPKLPELNMVIVMNKLDEPVEDVIDLSQAKTEGKKVLEAKPWLLDGIKSNPDDVATLIYTSGTTGLPKGVMLTHRNICENVKSCSTVIRIDQTDSSLSFLPLSHAYERTGGYYLMFACGARINLAESVETISLNISEAKPTIIFTVPRLFDRMKASILKSVTSEGGVKEKIFFWAVSTGEKYHKQLATGKVSPLLAVQHNLADKLVYSKIRKKFGGKLRYFVSGGAALPQKTGEFFQSIGITILEGFGLTETSPVTNVNRPEKVKFGTVGLPVKNVEVKIAPDGEIMLKGPNIMKGYWKDEAASAEVLRDGWLYTGDIGEVDSEGYLKITDRKKHIIVTSGGKNIAPLQIENLILDSPYVDQAMIVGEKRPFLIALIVPDFLKLRDFAAEHQIKASSTKELINTKEVIEVYEKLLKSISRQLATHEKVRKFLLLEEPFSIENGMMTPTLKLKRKEITTKFSAEIDNLYNTLNMVYNTEGHHHHHH	soluble
MGSDKIHHHHHHMTAGGLHNGSGGMESARHCRELVERWLADGSFDARLPEVVRLRGVLQPEQYHAEGDAWTHTMLAMEAVPDDADPRVFWGVLLHDIGKAETTAFIKGRWRSWGHAEAGAGEVSAIMTRLGFPHLAADVTWLVKHHTFHFSWNLTPGARLSPKQRRFMEHPLFPLLLEVCDADAAGSRGGSDKGVKIGQLADMYADVTKGWADS	not soluble
MGSDKIHHHHHHMDISRKIERLELFLEQDKDNLNLMLDLIYLSLDAGSIDIAENYLYRAQQQHPESSQLIYLSGLISCQRKNFEQGLITFNSLLSAGVRSASILYQAAYCNIQLGNPETALERLIHASELSPETEILYLLARTQYQLKNFELAVSTLTALADSDAKYAPAHSLLSQIYMDIEQWADAQASAAKALALDPNNVTANITIGFITLNSNQYDQAARHFSQALNVNDESCRTHLGLAIIDVFQQRYVEAEQHLLKALSLQNDLLPGINLLGWLYLLTDRFALARDVFDRGVEVDRSYAEMYGGIAIVDILEKDETAARKNVAIALRLDKMSYAGNFAKILLLQNAQRLSQAEKVWKNLISSPIDDTGKTLEQAVIEQIRAYLKVTLH	not soluble
GPGSMQSDFDNVETELRDIEETFTTGRMNAFGSASTQDAFVHELKRIAEIETQVFYRTCALLKSSHTNEHQLVTNMYASAQPPPQSQRSGPATTSPSSNLGDGSFRANSSGLESSMYRGPMNQRSQSSFASTVAGGLSGAPPSNSNIHSSSASRRQSRQGWENVSAGSPFPGVGDGGASSGAAPHIHRSEWGNEDGFADKAFEDVAAHFEELESQFFSLGDYLREISKHVIRLNDMSKQVNNGVNYGANGGVTGAPAAAANANGSSNNTDMLQTVGSMGRQDYPGSFIDPTSIGGGSGYGMDGPHS	soluble
MGSDKIHHHHHHMEQSATPACSICFPDSICRISPSSPLASPNGDEYHMKIALLCSGLGNVQRGHEIFVRDLFDMLKGSVDITLFKGGGEPAPNELVIDNVSRNAPSLQNIHLAVSPRWKVAMQEQERIRIETETFAHAALRPLLEGGYDIIHCLEQEVCNRLYGFRHLFAHTPKFLFSNGGAIPAAKLSNCDFVQEHTEYNLQHSAREKAFCIPHGVDIQRFNPSISSDFRARYGIAEDAFVVISVGIICYWHKRMDYLIKEVAQIPEAHLLIVGQECADTPAIKALGEKLMPGRITFTKMPHDELPQAYAAADVFALGSLFETFGIVYIEALAMGLPVFCTEHPNQRSIVREGVFLDIKQAGALRDALLKRDPAQMRYLRERGPQIARETYALEKLKSAYIEHYQRIAASEVSLPRYTFKTKLQDNVRSLYRRLSRG	not soluble
MSLTDPLRFVLVPKVVHPWFDKVNDGAKAAAEMLTTTTGRKVTVEYRAPQKADVVEQNDIIARSIATRPDGIFVDLLDEKGNRAVLEEAQEQGIPVTVFDSVAPEGMNLTSIGNDFCEQATIASTRLVELMGGKGEVAIMMGVPTAPNHAIRAKCHEQTFAKYPDIKLVATGIDNDSIETAQKQAAAIMQAHPNLKGWVASDAAGPIGIGQAIKEAGKVGKVFEVGLDDLPDLLALIKEGVVDSSSSTKPEMQGYWAVIATWQKAMGMPTPKYIDTGIAVITKESLAKEGHHHHHH	soluble
MPKVGMPEIRKPQLVKATMSVIDRVGLHAASISLISKEAGVSTGIINHYFGGKHGLLEETMREILRQLSSTITGKLRALPADAHHQRINAIIDGNFVGYQAENKVAKTWLAFWSYSMHDEQLKRLQRVNERRLLSHLRRELKALLSAEQAELVAHGIASLIDGIWLRGTLNPQGIEADKARIIINDYLDKQLTFYSHKI	not soluble
MGHHHHHHSHFLSSSTYPEIHGFLHAKEQGKKSWKKIYFFLRRSGLYFSTKGTSKEPRHLQFFSEFGNSDIYVSLAGKKKHGAPTNYGFCFKPNKAGGPRDLKMLCAEEEQSRTCWVTAIRLLKYGMQLYQNYMHPYQGRSGCSSQSI	not soluble
MGSDKIHHHHHHMSVLVVGMSHRSAPVALLEKLSMDDGVRTNTVSDLVARPSLAEAMIVSTCNRLEVYAMTSSFHTGVNDVVEVLHDMSGVDMEELRGYLYVRYADAAAEHMMEVTSGLDSMVVGEQQIIGQVRTAYHSATEAGTVGPALHGLVQASLHTGKRVHTETDIDDAGASMVSFACDEALAQMSATNFAGCRALVLGAGAMASLAATHLGRLGIEHITVANRTFERAQRLADHAVEAGVAASAIEFERRMDVLCDVDVVVSATGANTFTIEAANIPAAHGDLMMIDLSLPRDISDDVAEVPGVHLVNIEKLRDVASSGEAKDHAAQRIVAEELEAYTSAQRIRDVAPAVAALRRHASSLIDSELARLSTRVPSMDEDDFSEVQRTVRRVVDKLLHQPTVRVKELAAQSGTVSYDTAIQELFGLAVEATPVAVNVDELPERINKR	not soluble
GPGSMSALNDSRTTSGRPLPGGKPYALRPEGIPPSLCGDNVGASRGGDSIGDFKTAFEQPHSIDSEEEGDVEAASSPEQRLRRVQRDVYRHERQIASLFSEKHEHCEHLATVYKELEKVLRKIQLAPLEDLKGHAASPSASTFCAPSSDEDGYAASSTVSALASSLQQRFHQVLQQHQDRVYDVLVDYRQQINKSEYETGRRLCAIEEAIAQIQSDVRELQHTASIQVEELRHVQQDVRQRVEAVAVQQEAQRAALDATREARDTKAAKLLSKIQDDVAGLRADAKAARTQQIESAKDVEEQIRSLLSAQHRTEEALGAHSASIAQLQNQDSLEGAFHEVKDWLGDLEKRMVSRGELLQWTASLQSEIHQMRRVTGGVLSHTIEPTAPGQDA	soluble
MEQINEKNFNFYNRIGLDTFQALAKDGGFSTFVDLEIAYRYIQPTENIAEIGAGYGRCIDFLLAKKHQGKIIAVEQSPKLCEHLRAVYSSTIKIVEGDIYKVSFDHQIDAALWMWSGMIDFSVEEQAAVIKHIHELLTQKGKLFIDIPRIGIKTIADHIDQQRIKLTTDFGEIECYIPLSSEVKEYADAAGFTRVDEINYETATDKKRTMYILMK	not soluble
MMKTLSSGNCTLSVPAKNSYRMVVLGASRVGKSSIVSRFLNGRFEDQYTPTIEDFHRKVYNIRGDMYQLDILDTSGNHPFPAMRRLSILTGDVFILVFSLDNRESFDEVKRLQKQILEVKSCLKNKTKEAAELPMVICGNKNDHGELCRQVPTTEAELLVSGDENCAYFEVSAKKNTNVDEMFYVLFSMAKLPHEMSPALHRKISVQYGDAFHPRPFCMRRVKEMDAYGMVSPFARRPSVNSDLKYIKAKVLREGQARERDKCTIQLEHHHHHH	soluble
MGENSLWNVYKTVSFWKVMKNFIIIQIARYTPCLSVKNWLYRTFLRMKVGKKTSFALMVMPDIMFPEKITVGENSIIGYNTTLLAHEYLIREYRLGEIVIGNEVMIGANVTILPGVKIGDGATVSAGTLVHRDVPSGAFVGGNPMRIIYTLEHHHHHH	soluble
MGSDKIHHHHHHMNLLKIIDDLQLEKIDQEEFLKPALRRGLFKKASDFSLKAALTSLPFALFAMPRIVQASTQANTQSVTDTLNYALTLEYLEEAFYVQGLAKSGLIDSADMTIFNQIKKHESAHVVFLKNVLGSAANPSPAFDFGTAFDSYANFLATAQALEDTGVRAYKGQAGNLITNKVALTAALQIHSVEARHASEVRRLRMLNGWIGVGEAGATYGAGEDANFPAESNLTQGGVDLSILASADVTMTNIAEAFDEPLDKNTVFGIAQGFIVS	not soluble
MVLFDVKKYETPDAKDVDMEQTKHNVSVFLSAYLAARCRVGQPREPKVTASFSLVPPSTAKNTFEAEQMLIQKEEAQEEFDYLHKLFVRGYSAIQHPHKPDVTERRKRIFYDRYINGNPIYLAAQRNCISEESVKQESNMIIVQFASALELVAFK	not soluble
MWPRNDVHMDDGSMTPEDQEPVTDNDMEYNDNGEESSYSNGSSSSYNADKLSSSRPLQHKLDLSASPSRNNDLNPRVEHLIALFKDLSSAEQMDAFTRLLQESNMTNIRQLRAIIEPHFQRDFLSCLPVELGMKILHNLTGYDLLKVAQVSKNWKLISEIDKIWKSLGVEEFKHHPDPTDRVTGAWQGTAIAAGVTIPDHIQPCDLNVHRFLKLQKFGDIFERAADKSRYLRADKIEKNWNANPIMGSAVLRGHEDHVITCMQIHDDVLVTGSDDNTLKVWCIDKGEVMYTLVGHTGGVWTSQISQCGRYIVSGSTDRTVKVWSTVDGSLLHTLQGHTSTVRCMAMAGSILVTGSRDTTLRVWDVESGRHLATLHGHHAAVRCVQFDGTTVVSGGYDFTVKIWNAHTGRCIRTLTGHNNRVYSLLFESERSIVCSGSLDTSIRVWDFTRPEGQECVALLQGHTSLTSGMQLRGNILVSCNADSHVRVWDIHEGTCVHMLSGHRSAITSLQWFGRNMVATSSDDGTVKLWDIERGALIRDLVTLDSGGNGGCIWRLCSTSTMLACAVGSRNNTEETKVILLDFDAVYP	not soluble
